Here are results for four molecules from US20170152307A1 (Janssen / Centocor, published 2017).

For experiment [1], the target named is ptau 406-429 (pS416, pS422) (human). The experiment can be described thus: peptide ELISA, 1 ug/mL IgG. A general note: In an ELISA, binding on a coated surface is turned into a signal by an enzyme label.
Description: (§1) Plates were coated in TBS overnight at 4° C. The following day, plates were washed five times with TB S/0.05% TWEEN® (TBS-T) and blocked with 150 IA of TBS-T plus 2.5% BSA (blocking buffer) for 2 hour. Tau peptides were captured on streptavidin-coated plates (Pierce) at a concentration of 0.43 μM in 100 μl of TBS. Tau peptides used to set up ELISA assays were the same used as baits in corresponding sorting experiment. Tau peptide-coated plates were then incubated at RT for 1.5 hours. All plates were then washed five times with TBS/0.05% TWEEN® and blocked with 150 μl and 300 μl (tau peptide plates only) of blocking buffer and incubated at RT for 2 hours. […] Primary antibodies were incubated for 2 hours at RT and washed five times in TBS-T. Finally, goat-anti human IgG Fab or goat anti-mouse HRP (Jackson Labs) was used at 1:2000 and 1:4000, respectively, and incubated for 1 hour at RT. Plates were washed five times in TBS-T and developed with SureBlue Reserve TMB Microwell Peroxidase Substrate (KPL). The reaction was halted by the addition of 50 μl and 100 μl (peptide plates) of TMB Stop Solution (KPL) and the absorbance at 450 nm was measured using an ELISA plate reader. Supernatants with the aforementioned binding activities were subsequently reconfirmed in an independent ELISA experiment.
Experiment [2] shares this target. The experiment can be described thus: peptide ELISA, biotinylated peptide on streptavidin plate, IgG titrated (Example 6).
Description: as §1
In another experiment the target is T1, tau 389-441 (human, N-terminal biotin, not carried by the letters).
T1 peptide: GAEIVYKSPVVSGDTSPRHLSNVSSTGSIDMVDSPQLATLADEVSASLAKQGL
The experiment is described as above.

Another experiment addresses T2, tau 409-428 (human, N-terminal biotin, not carried by the letters).
T2 peptide: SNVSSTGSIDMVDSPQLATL
The experiment can be described thus: peptide ELISA.

The next experiment concerns the target T3, tau 405-423 (human).
T3 peptide: Biotin-PRHLSNVSSTGSIDMVDSP
The experiment in a line: peptide ELISA.

Experiment [3] deals with ptau 225-245 (pS235, pS238) (human). The experiment can be described thus: peptide ELISA, 1 ug/mL IgG.
Description: as §1
Experiment [4] has as its target ptau 221-245 (pT231, pS238) (human). The experiment in a line: peptide ELISA, 1 ug/mL IgG.
Description: as §1
The target of a further experiment is ptau 228-245 (pS238) (human). The experiment in a line: peptide ELISA, 1 ug/mL IgG.
A further experiment has as its target T4, tau 52-71 (A67) (human, N-terminal biotin on the synthetic peptide; not carried in the letters).
T4 construct: K67A
T4 peptide: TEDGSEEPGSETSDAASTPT
The experiment can be described thus: alanine-scan peptide ELISA.

For a further experiment, the target named is T5, tau 52-71 (A62) (human, N-terminal biotin; not carried in the letters).
T5 construct: E62A
T5 peptide: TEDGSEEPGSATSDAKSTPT
The experiment can be described thus: alanine-scan peptide ELISA.

The target in the next experiment is T6, tau 52-71 (A65) (human, N-terminal biotin on the synthetic peptide; not carried in the letters).
T6 construct: D65A
T6 peptide: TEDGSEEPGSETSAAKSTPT
The experiment can be described thus: alanine-scan peptide ELISA.

A further experiment addresses tau 82-103 (human, N-terminal biotin, not carried by the letters). The experiment in a line: peptide ELISA, biotinylated overlapping peptide on streptavidin plate, IgG titrated (Example 9).
In a further experiment the target is T7, tau 62-81 (human, N-terminal biotin, not carried by the letters).
T7 peptide: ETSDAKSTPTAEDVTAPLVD
The description is as above.

For another experiment, the target named is T8, tau 72-91 (human, N-terminal biotin, not carried by the letters).
T8 peptide: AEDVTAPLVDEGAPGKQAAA
The description is as above.

For a further experiment, the target named is T9, tau 42-61 (human, N-terminal biotin, not carried by the letters).
T9 peptide: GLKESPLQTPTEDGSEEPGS
The description is as above.

The target of another experiment is T10, ptau 48-71 (p64) (human).
T10 construct: also called ptau 48-71 (Ser64)
The experiment in a line: peptide ELISA, biotinylated peptide on streptavidin plate, IgG titrated (Example 14).

The next experiment concerns the target T11, tau 52-71 (A68) (human, N-terminal biotin on the synthetic peptide; not carried in the letters).
T11 construct: S68A
T11 peptide: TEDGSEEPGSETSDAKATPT
The experiment can be described thus: alanine-scan peptide ELISA, 1 ug/mL IgG.

A further experiment deals with T12, tau 52-71 (A52) (human, N-terminal biotin, not carried by the letters).
T12 construct: T52A
T12 peptide: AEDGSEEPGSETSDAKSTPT
The experiment can be described thus: alanine-scan peptide ELISA, 1 ug/mL IgG.

The target of another experiment is T13, tau 52-71 (A56) (human, N-terminal biotin; not carried in the letters).
T13 construct: S56A
T13 peptide: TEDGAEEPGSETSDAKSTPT
The experiment in a line: alanine-scan peptide ELISA, 1 ug/mL IgG.

A further experiment deals with T14, tau 52-71 (A61) (human, N-terminal biotin; not carried in the letters).
T14 construct: S61A
T14 peptide: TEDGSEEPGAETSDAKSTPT
The experiment can be described thus: alanine-scan peptide ELISA, 1 ug/mL IgG.

In a further experiment the target is T15, tau 52-71 (A64) (human, N-terminal biotin on the synthetic peptide; not carried in the letters).
T15 construct: S64A
T15 peptide: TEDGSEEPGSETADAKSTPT
The experiment in a line: alanine-scan peptide ELISA, 1 ug/mL IgG.

Another experiment deals with T16, tau 52-71 (A53) (human, N-terminal biotin, not carried by the letters).
T16 construct: E53A
T16 peptide: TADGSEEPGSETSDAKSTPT
The experiment can be described thus: alanine-scan peptide ELISA, 1 ug/mL IgG.

The next experiment addresses T17, tau 52-71 (A69) (human, N-terminal biotin on the synthetic peptide; not carried in the letters).
T17 construct: T69A
T17 peptide: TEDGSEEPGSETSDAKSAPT
The experiment in a line: alanine-scan peptide ELISA, 1 ug/mL IgG.

A further experiment has as its target T18, tau 52-71 (A60) (human, N-terminal biotin; not carried in the letters).
T18 construct: G60A
T18 peptide: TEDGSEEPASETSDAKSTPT
The experiment can be described thus: alanine-scan peptide ELISA, 1 ug/mL IgG.

In the next experiment the target is T19, tau 52-71 (A71) (human, N-terminal biotin on the synthetic peptide; not carried in the letters).
T19 construct: T71A
T19 peptide: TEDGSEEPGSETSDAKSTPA
The experiment in a line: alanine-scan peptide ELISA, 1 ug/mL IgG.

In another experiment the target is T20, tau 52-71 (A63) (human, N-terminal biotin on the synthetic peptide; not carried in the letters).
T20 construct: T63A
T20 peptide: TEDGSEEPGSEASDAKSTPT
The experiment can be described thus: alanine-scan peptide ELISA, 1 ug/mL IgG.

For the next experiment, the target named is T21, tau 52-71 (A59) (human, N-terminal biotin; not carried in the letters).
T21 construct: P59A
T21 peptide: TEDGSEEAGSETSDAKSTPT
The experiment in a line: alanine-scan peptide ELISA, 1 ug/mL IgG.

The target in the next experiment is T22, tau 52-71 (A57) (human, N-terminal biotin; not carried in the letters).
T22 construct: E57A
T22 peptide: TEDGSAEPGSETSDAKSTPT
The experiment can be described thus: alanine-scan peptide ELISA, 1 ug/mL IgG.

A further experiment concerns the target T23, tau 52-71 (A55) (human, N-terminal biotin (all tau peptides were synthesized with an amino-terminal biotin group); not carried in the letters).
T23 construct: G55A
T23 peptide: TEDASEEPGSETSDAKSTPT
The experiment in a line: alanine-scan peptide ELISA, 1 ug/mL IgG.

In another experiment the target is T24, tau 52-71 (A58) (human, N-terminal biotin; not carried in the letters).
T24 construct: E58A
T24 peptide: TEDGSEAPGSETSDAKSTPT
The experiment can be described thus: alanine-scan peptide ELISA, 1 ug/mL IgG.

A further experiment deals with T25, tau 52-71 (A70) (human, N-terminal biotin on the synthetic peptide; not carried in the letters).
T25 construct: P70A
T25 peptide: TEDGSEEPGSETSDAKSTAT
The experiment in a line: alanine-scan peptide ELISA, 1 ug/mL IgG.

In a further experiment the target is T26, tau 52-71 (A54) (human, N-terminal biotin, not carried by the letters).
T26 construct: D54A
T26 peptide: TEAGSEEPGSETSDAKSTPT
The experiment in a line: alanine-scan peptide ELISA, 1 ug/mL IgG.

The next experiment concerns the target ptau 299-323 p305, 316 (human). The experiment can be described thus: peptide ELISA, biotinylated peptide on streptavidin plate, IgG titrated (Example 14).
In the next experiment the target is T27, ptau 404-421 (human).
T27 construct: also called ptau 404-421 p414
The experiment can be described thus: peptide ELISA.

The target of another experiment is ptau 406-423 (human). The experiment can be described thus: peptide ELISA.
For experiment [5], the target named is ptau 406-429 (pS416, pS422) (human). The experiment in a line: peptide ELISA, 1 ug/mL IgG. The source holds these as a separate data set.
In a further experiment the target is ptau 404-429 (human). The experiment can be described thus: peptide ELISA, 1 ug/mL IgG.
For the next experiment, the target named is ptau 412-429 (human). The experiment can be described thus: peptide ELISA, 1 ug/mL IgG.
The target in another experiment is T28, ptau 412-434 (human).
T28 construct: also called ptau 412-434 p422, 427
The experiment in a line: peptide ELISA, 1 ug/mL IgG.

Read-outs that look alike come from different tables or passages of the source. Where no end group is shown, it is not given here. The star is where a group is joined. Biotin = O=C1N[C@H]2[C@H](CS[C@H]2CCCCC(=O)*)N1

Sequence of ptau 299-323 p305, 316 (human) (main, as listed by the source): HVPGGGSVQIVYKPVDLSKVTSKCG
T10 sequence (main, as listed by the source): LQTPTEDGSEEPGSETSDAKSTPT
Sequence of tau 82-103 (human, N-terminal biotin, not carried by the letters) (peptide, as listed by the source limits assumed): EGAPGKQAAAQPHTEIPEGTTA
Description for ptau 228-245 (pS238): as §1
Description for ptau 299-323 p305, 316: (§2) Plates were washed five times with TBS-T followed by the addition of secondary antibody [goat Anti-Human IgG F(ab′)₂ (Jackson Labs) at 1:2000 dilution], diluted in TBS plus 0.25% BSA, and incubated at RT for 1 hour. Following incubation, plates were washed four times in TBS-T and developed with SureBlue Reserve TMB Microwell Peroxidase Substrate (KPL) for approximately 90 seconds. The reaction was immediately halted by the addition of TMB Stop Solution (KPL) and the absorbance at 450 nm was measured using an ELISA plate reader. Each experiment was conducted in triplicate across three different days. Reactivity was considered positive when values were equal to or higher than an OD of 0.4 in the ELISA assay. […] (−) for average of two O.D. 450 nm readings <0.3; (−/+) for >0.5 and <1.0; (+) for >1.0 and <1.5; (++) for >1.5. […] (−) for average of three O.D. 450 nm readings <0.3; (−/+) for >0.5 and <1.0; (+) for >1.0 and <1.5; (++) for >1.5.
(§3) (−) for average of two O.D. 450 nm readings <0.3; (−/+) for >0.5 and <1.0; (+) for >1.0 and <1.5; (++) for >1.5.
Description for ptau 404-421: (§4) Briefly, 96-well streptavidin-binding plates (Thermo-Fisher) were coated with 2 μg/ml of tau peptides diluted in TBS and incubated overnight at 4° C. […] Plates were washed five times with TBS-T followed by the addition of secondary antibody [goat Anti-Human IgG F(ab′)₂ (Jackson Labs) at 1:2000 dilution], diluted in TBS plus 0.25% BSA, and incubated at RT for 1 hour. Following incubation, plates were washed four times in TBS-T and developed with SureBlue Reserve TMB Microwell Peroxidase Substrate (KPL) for approximately 90 seconds. The reaction was immediately halted by the addition of TMB Stop Solution (KPL) and the absorbance at 450 nm was measured using an ELISA plate reader. Each experiment was conducted in triplicate across three different days. Reactivity was considered positive when values were equal to or higher than an OD of 0.4 in the ELISA assay. […] (−) for average of two O.D. 450 nm readings <0.3; (−/+) for >0.5 and <1.0; (+) for >1.0 and <1.5; (++) for >1.5. […] (−) for average of three O.D. 450 nm readings <0.3; (−/+) for >0.5 and <1.0; (+) for >1.0 and <1.5; (++) for >1.5.
Description for ptau 406-423: as §4
Description for ptau 48-71 (p64): as §2, §3
Description for tau 389-441: as §1
Description for tau 405-423: as §4
Description for tau 409-428: as §4
Description for tau 42-61: as §4
Description for tau 52-71 (A52): as §2
(§5) To further characterize the specificity and amino acid contribution to binding of each of the recover mAbs, their reactivity to tau peptides with each position replaced with Alanine was tested by ELISA. […] (−) for average of two O.D. 450 nm readings <0.3; (−/+) for >0.5 and <1.0; (+) for >1.0 and <1.5; (++) for >1.5.
Description for tau 52-71 (A53): as §2, §5
Description for tau 52-71 (A54): as §2, §5
Description for tau 52-71 (A55): as §2, §5
Description for tau 52-71 (A56): as §2, §5
Description for tau 52-71 (A57): as §2, §5
Description for tau 52-71 (A58): as §2, §5
Description for tau 52-71 (A59): as §2, §5
Description for tau 52-71 (A60): as §2, §5
Description for tau 52-71 (A61): as §2, §5
Description for tau 52-71 (A62): as §2, §5
Description for tau 52-71 (A63): as §2, §5
Description for tau 52-71 (A64): as §2, §5
Description for tau 52-71 (A65): as §2, §5
Description for tau 52-71 (A67): as §2, §5
Description for tau 52-71 (A68): as §2, §5
Description for tau 52-71 (A69): as §2, §5
Description for tau 52-71 (A70): as §2, §5
Description for tau 52-71 (A71): as §2, §5
Description for tau 62-81: as §4
Description for tau 72-91: as §4
Description for tau 82-103: as §4

B1: CBTAU-22.1 (antibody, human IgG1, V domains shown)
VH: QVQLVQSGAEVKKPGAPVKVSCETSGYRFSDYNVHWVRQAPGQGPEWIGRISPNSGGTKYAQKFQGRVTMTRDMSMNTAYMELSGLRSDDTAVYYCVRGHCDGTTCSRAYWGQGTLVTVSS
VL: DVVMTQSPLSLPVTPGEPASISCRSSQSLLHRSGHKYLHWYLQRPGQSPQVLIYLGSNRASGVPDRFSGSGSGTDFTLKISRVEAEDVGLYYCMQTLQTPWTFGQGTKVEIK
notes: recombinant full-length human IgG1
By EC50 (read off the curve) is commonly meant the midpoint of the concentration-response curve. Read a high EC50 (read off the curve) as weaker potency. In turn, B1 came in with an OD450 in [1] greater than 1.5 od. The “EC50 (read off the curve)” value in [2] was roughly 0.04 µg/mL. Besides, the binding result with tau 389-441 was “no binding (tested: 5 µg/mL)”; with tau 409-428, “no binding (tested: OD450 <0.3 at 2 ug/mL)”; with tau 405-423 it was “no binding (tested: OD450 <0.3 at 2 ug/mL)”.

B2: CBTAU-24.1 (antibody, human IgG1, V domains shown)
VH: QVQLVQSGAEVKKPGASVKVSCTASGYTFTGYYLHWVRQAPGQGLEWMGWVNPRSGGTSYPPKFQGRVTMTRDTSINTAYMDLTWLTSDDTAVYYCAVGRIPDVTAFDIWGQGTPVTVSS
VL: DIQMTQSPDSLAVSLGERATINCKSSESLLYDSNNKNYLAWYQQKPGQPPKLLIYWASTRESGVPDRFSGSGSETDFTLTISSLQAEDVAVYHCQQYFSTPWTFGQGTKLEIK
notes: as for B1
Turning to B2, the OD450 (in experiment [3]; in experiment [4]; in the experiment with ptau 228-245 (pS238)) was greater than 1.5 od in each case.

B3: CBTAU-28.1 (antibody, human IgG1, V domains shown)
VH: QVQLQQSGAEVKKPGESLKISCEASGYSFTNYWIGWVRQMPGKGLEWMGIIYPGDSDTRYSPPFQGQVTITADRSITTAYLEWSSLKASDTAMYYCARVGRPSKGGWFDPWGQGTLVTVSS
VL: DIQMTQSPDSLAVSLGERATINCESSQTLLYSSNEKNYLAWYQQKPGQPPKLLISWASTPESGVPDRFSGSGSGTSFTLTISSLQAEDVAVYYCQQYYNSPYTFGQGTRLEIK
notes: as for B1
As to B3, the binding result in the experiment with tau 52-71 (A67) is “no binding (tested: OD450 <0.3 at 1 ug/mL)”; with tau 52-71 (A62), “no binding (tested: OD450 <0.3 at 1 ug/mL)”; in the experiment with tau 52-71 (A65) it was “no binding (tested: OD450 <0.3 at 1 ug/mL)”; with tau 82-103 it was “no binding (tested: 5 µg/mL)”; with tau 62-81, “no binding (tested: 5 µg/mL)”; with tau 72-91, “no binding (tested: 5 µg/mL)”. Besides, the binding result with tau 42-61 was “no binding (tested: 5 µg/mL)”; with tau 52-71 (A68) it was “binds”; in the experiment with tau 52-71 (A52), “binds”; with tau 52-71 (A56), “binds”; in the experiment with tau 52-71 (A61) it was “binds”; in the experiment with tau 52-71 (A64), “binds”. Moreover, the binding result with tau 52-71 (A53), with tau 52-71 (A69), with tau 52-71 (A60), in the experiment with tau 52-71 (A71), in the experiment with tau 52-71 (A63) and with tau 52-71 (A59) was “binds” each time. The binding result in the experiment with tau 52-71 (A57), with tau 52-71 (A55), with tau 52-71 (A58), with tau 52-71 (A70) and in the experiment with tau 52-71 (A54) was “binds” in each case. Moreover, the “EC50 (read off the curve)” value with ptau 48-71 (p64) is roughly 0.2 µg/mL.

B4: CBTAU-27.1 (antibody, human IgG1, V domains shown)
VH: QVQLVESGPEMRKPGESLKISCKTSGYIFSDYWTAWVRQLPGKGLQWMGIIYSGDSDTRYHPSVQGHVTMSTDSSLTTAYLQWSSLKASDTGIYYCARLDARVDAGWQLDSWGQGTLVTVSS
VL: DIQLTQSPDSLAVSLGERATINCKSSQSVFSRDNNKNYLAWYQHKSGQPPKLLFFWASSRESGVSDRFSGSGSGTDFTLTIDNLQAEDVALYYCQHYFNTPHNFGQGTKLEIK
notes: as for B1
On to B4, for which the “EC50 (read off the curve)” value with ptau 299-323 p305, 316 was roughly 0.01 µg/mL. The OD450 in the experiment with ptau 404-421 is less than 0.3 od; with ptau 406-423, less than 0.3 od; in experiment [5], 0.5 to 1 od; with ptau 404-429, 0.5 to 1 od; with ptau 412-429, 0.5 to 1 od; in the experiment with ptau 412-434, 0.5 to 1 od.
